Experiments:
human syndecan-1 [1] = molecular target: T1, human syndecan-1 (human, UniProt P18827 23-310); assay: lacritin affinity column, biotinylated cell surface proteins, elution with 1 M NaCl, sequencing
T1 construct: also called mammalian syndecan-1; CD138
T1 sequence (looked up): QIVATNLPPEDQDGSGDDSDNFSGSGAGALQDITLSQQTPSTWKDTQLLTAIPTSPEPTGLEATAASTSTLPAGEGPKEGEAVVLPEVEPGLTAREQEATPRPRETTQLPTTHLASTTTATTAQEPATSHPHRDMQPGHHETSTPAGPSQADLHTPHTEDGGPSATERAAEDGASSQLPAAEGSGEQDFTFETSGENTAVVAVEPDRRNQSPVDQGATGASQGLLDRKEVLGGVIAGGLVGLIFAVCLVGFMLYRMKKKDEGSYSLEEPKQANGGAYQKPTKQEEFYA
Protocol: (§1) After washing extensively in physiological salt-containing buffer, bound protein was eluted with 1 M NaCl, and identified with avidin-peroxidase using an ECL blot method. […] 293T cells stably transfected with human syndecan-2 or −4 were kindly provided by Dr. Atsushi Utani (Chiba University). […] Immunolocalization of syndecan-1 in human lacrimal glands was performed using anti-human syndecan-1 antibody (CD138).

human syndecan-4 = molecular target: T2, human syndecan-4 (human, UniProt P31431 19-198); assay: pull-down from lysates of transfected 293T cells with intein-tagged lacritin
T2 sequence (looked up): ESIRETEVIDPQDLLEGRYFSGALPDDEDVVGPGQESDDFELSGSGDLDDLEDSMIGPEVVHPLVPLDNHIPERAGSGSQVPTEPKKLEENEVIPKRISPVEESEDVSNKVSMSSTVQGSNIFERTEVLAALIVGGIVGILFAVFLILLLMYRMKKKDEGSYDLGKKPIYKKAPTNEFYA
Protocol: as §1

human syndecan-2 = human syndecan-2 (human, UniProt P34741 19-201); assay: as above
Chain of human syndecan-2 (P34741 19-201 limits assumed): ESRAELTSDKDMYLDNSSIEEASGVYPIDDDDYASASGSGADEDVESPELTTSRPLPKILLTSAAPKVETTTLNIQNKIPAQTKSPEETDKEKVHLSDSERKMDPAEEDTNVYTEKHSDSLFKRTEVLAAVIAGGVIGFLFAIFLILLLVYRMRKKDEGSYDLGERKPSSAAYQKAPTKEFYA
Protocol: as §1

human syndecan-1 [2] = molecular target: T1, human syndecan-1; assay: pull-down from lysates of transfected cells with intein-tagged lacritin, SDS PAGE
Protocol: as §1

human syndecan-1 [3] = molecular target: T1, human syndecan-1; assay: pull-down from lysates of transfected cells with intein-tagged deletion mutant
Protocol: as §1

B1: mature lacritin (recombinant, from pLAC, cleaved from intein) (ligand)
chain: EDASSDSTGADPAQEAGTSKPNEEISGPAEPASPPETTTTAQETSAAAVQGTAKVTSSRQELNPLKSIVEKSILLTEQALAKAGKGMHGGVPGGKQFIENGSEFAQKLLKKFSLLKPWA
notes: also called soluble lacritin
- binding result (human syndecan-1 [1]): binds

B2: intein-tagged lacritin (pLAC lacritin-intein fusion) (ligand, not shown: small tags and cut ends)
chain: B1 chain
- binding result (human syndecan-4): no binding
- binding result (human syndecan-2): no binding
- binding result (human syndecan-1 [2]): binds

B3: intein-tagged lacritin deletion mutant C-25 (ligand)
chain: EDASSDSTGADPAQEAGTSKPNEEISGPAEPASPPETTTTAQETSAAAVQGTAKVTSSRQELNPLKSIVEKSILLTEQALAKAGKGMHGGVPGG
notes: Pull-downs used 'intein deletion mutants'; also called lacritin lacking 25 C-terminal amino acids; not shown: intein tag of vector pTYB11
- binding result (human syndecan-1 [3]): no binding
